The Immune Epitope Database (IEDB)

Legend:
HLA-B*15:01 [1] = test: IEDB peptide-MHC binding, purified MHC/direct/fluorescence; filed as Kd, often an IC50 or EC50 that approximates it; ≥ and ≤ were set here for values at or beyond the usual limits of such assays
HLA-B*07:02 = test: as above; conditions: source organism: Yellow fever virus
HLA-B*48:01 = test: as above; conditions: source organism: Yellow fever virus
HLA-A*03:01 [2] = test: as above
HLA-B*18:01 = test: as above; conditions: source organism: Yellow fever virus
HLA-B*44:02 = test: as above; conditions: source organism: Yellow fever virus
HLA-B*57:01 = test: as above; conditions: source organism: Yellow fever virus
HLA-A*01:01 [3] = test: as above
HLA-B*58:01 = test: as above
HLA-A*69:01 = test: as above
HLA-A*31:01 [4] = test: as above
HLA-B*15:09 = test: as above; conditions: source organism: Yellow fever virus
HLA-B*40:01 = test: as above
HLA-A*02:01 [5] = test: as above
HLA-B*46:01 = test: as above; conditions: source organism: Yellow fever virus
HLA-A*11:01 = test: as above
HLA-B*27:05 = test: as above
HLA-A*01:01 [6] = test: IEDB peptide-MHC binding, purified MHC/competitive/radioactivity; filed as Kd, often an IC50 or EC50 that approximates it; ≥ and ≤ were set here for values at or beyond the usual limits of such assays; conditions: source organism: Dengue virus 4 Philippines/H241/1956
HLA-A*02:01 [7] = test: as above
HLA-A*02:06 = test: as above
HLA-A*02:17 = test: as above
HLA-A*02:03 = test: as above
HLA-A*31:01 [8] = test: IEDB peptide-MHC binding, purified MHC/competitive/fluorescence; filed as Kd, often an IC50 or EC50 that approximates it; ≥ and ≤ were set here for values at or beyond the usual limits of such assays
HLA-A*03:01 [9] = test: as above
HLA-A*68:02 = test: IEDB peptide-MHC binding, purified MHC/competitive/radioactivity; filed as Kd, often an IC50 or EC50 that approximates it; ≥ and ≤ were set here for values at or beyond the usual limits of such assays
HLA-A*68:01 = test: as above; conditions: source organism: Lassa virus Josiah
HLA-A*33:01 = test: as above; conditions: source organism: Lassa virus Josiah
HLA-A*80:01 = test: IEDB peptide-MHC binding, purified MHC/direct/fluorescence; filed as Kd, often an IC50 or EC50 that approximates it; ≥ and ≤ were set here for values at or beyond the usual limits of such assays; conditions: source organism: Escherichia coli O157:H7
HLA-B*15:01 [10] = test: IEDB peptide-MHC binding, purified MHC/competitive/fluorescence; filed as Kd, often an IC50 or EC50 that approximates it; ≥ and ≤ were set here for values at or beyond the usual limits of such assays; conditions: source organism: Escherichia coli O157:H7 str. EDL933
HLA-B*35:01 = test: IEDB peptide-MHC binding, purified MHC/direct/fluorescence; filed as Kd, often an IC50 or EC50 that approximates it; ≥ and ≤ were set here for values at or beyond the usual limits of such assays; conditions: source organism: Haemophilus influenzae
HLA-B*08:01 = test: as above; conditions: source organism: Haemophilus influenzae
HLA-A*24:03 = test: as above; conditions: source organism: Haemophilus influenzae
HLA-A*26:01 = test: as above; conditions: source organism: Haemophilus influenzae
[11] = source organism: Yellow fever virus
[12] = source organism: Dengue virus 4 Philippines/H241/1956
[13] = source organism: Dengue virus 1 Brazil/97-11/1997
[14] = source organism: Dengue virus 1 Singapore/S275/1990
[15] = source organism: Bacillus anthracis str. A2012
[16] = source organism: Shigella sonnei Ss046
[17] = source organism: Mammarenavirus lassaense
[18] = source organism: Dengue virus 2 Jamaica/1409/1983
[19] = source organism: Haemophilus influenzae

In the case of FHKRDMRLL, the Kd (HLA-B*15:01 [1]; [11]) is reported as ≥ 20000 nM, the Kd (HLA-B*07:02) is reported as ≥ 20000 nM and the Kd (HLA-B*48:01) is reported as ≥ 20000 nM. For the same sequence, the Kd (HLA-A*03:01 [2]; [11]) was ≥ 20000 nM, the Kd (HLA-B*18:01) was ≥ 20000 nM and the Kd (HLA-B*44:02) was ≥ 20000 nM. The Kd (HLA-B*57:01) was ≥ 20000 nM, the Kd (HLA-A*01:01 [3]; [11]) was ≥ 20000 nM and the Kd (HLA-B*58:01; [11]) was ≥ 20000 nM. The Kd (HLA-A*69:01; [11]) was ≥ 20000 nM, the Kd (HLA-A*31:01 [4]; [11]) was ≥ 20000 nM and the Kd (HLA-B*15:09) was 3000 nM. For the same sequence, the Kd (HLA-B*40:01; [11]) was ≥ 20000 nM, the Kd (HLA-A*02:01 [5]; [11]) was ≥ 20000 nM and the Kd (HLA-B*46:01) was ≥ 20000 nM. For the same sequence, the Kd (HLA-A*11:01; [11]) was ≥ 20000 nM and the Kd (HLA-B*27:05; [11]) was ≥ 20000 nM.

FIDGISLGL gave a Kd (HLA-A*01:01 [6]) of 1520 nM, a Kd (HLA-A*02:01 [7]; [12]) of 18.9 nM and a Kd (HLA-A*02:06; [12]) of 32.4 nM. The Kd (HLA-A*02:17; [12]) was 56.1 nM.

Work on ILNPYMPSV yielded a Kd (HLA-A*02:03; [13]) of 1.98 nM, a Kd (HLA-A*02:01 [7]; [14]) of 4.26 nM and a Kd (HLA-A*02:06; [13]) of 4.98 nM. The Kd (HLA-A*02:17; [14]) was 3.58 nM.

KILNPYMPSV was tested, and the Kd (HLA-A*02:03; [13]) was 48.5 nM, the Kd (HLA-A*02:01 [7]; [14]) was 4.81 nM and the Kd (HLA-A*02:06; [13]) was 5.14 nM. The Kd (HLA-A*02:17; [14]) was 7.71 nM.

For KLRMVTGLR, the Kd (HLA-A*31:01 [8]; source organism: Influenza A virus (A/Bangkok/10/1983(H1N1))) was 45.1 nM and the Kd (HLA-A*03:01 [2]; source organism: Influenza A virus (A/Liaoning/25/2000(H1N1))) was 366 nM.

In the case of LLLSFTSFR, the Kd (HLA-A*03:01 [9]; [15]) is reported as 22.9 nM and the Kd (HLA-A*31:01 [8]; [15]) is reported as 2.6 nM.

For MQLSRLTLR, the Kd (HLA-A*03:01 [9]; [16]) was 3500 nM and the Kd (HLA-A*31:01 [8]; [16]) was 6.1 nM.

With MTLWYMWQV the Kd (HLA-A*68:02; [12]) was 11.3 nM, the Kd (HLA-A*02:01 [7]; [12]) was 13.7 nM and the Kd (HLA-A*02:06; [12]) was 2.67 nM. For the same sequence, the Kd (HLA-A*02:17; [12]) was 27.4 nM.

MVLAFITFL was tested, and the Kd (HLA-A*68:02; [12]) was 19.2 nM, the Kd (HLA-A*02:01 [7]; [12]) was 16.9 nM and the Kd (HLA-A*02:06; [12]) was 3.45 nM. For the same sequence, the Kd (HLA-A*02:17; [12]) was 3.99 nM.

RTRDIYISR showed a Kd (HLA-A*31:01 [8]; source organism: Lassa virus GA391) of 4.75 nM, a Kd (HLA-A*68:01) of 825 nM and a Kd (HLA-A*33:01) of 22.3 nM. For the same sequence, the Kd (HLA-A*03:01 [2]; [17]) was 98.5 nM and the Kd (HLA-A*11:01; [17]) was ≥ 20000 nM.

In the case of RVIRTVREK, the Kd (HLA-A*01:01 [3]; source organism: Escherichia coli O157:H7) is reported as ≥ 20000 nM and the Kd (HLA-A*80:01) is reported as ≥ 20000 nM.

TMTDDIGMGV gave a Kd (HLA-A*68:02; [18]) of 116 nM, a Kd (HLA-A*02:03; [18]) of 7.59 nM and a Kd (HLA-A*02:01 [7]; [18]) of 21.3 nM. The Kd (HLA-A*02:06; [18]) was 5.64 nM and the Kd (HLA-A*02:17; [18]) was 313 nM.

With VLIGRRWFR the Kd (HLA-B*15:01 [10]) was ≥ 20000 nM and the Kd (HLA-A*31:01 [8]; source organism: Escherichia coli O157:H7 str. EDL933) was 1.7 nM.

With YATVAGHEG the Kd (HLA-B*15:01 [1]; [19]) was 10500 nM, the Kd (HLA-A*03:01 [2]; [19]) was ≥ 20000 nM and the Kd (HLA-A*01:01 [3]; [19]) was ≥ 20000 nM. For the same sequence, the Kd (HLA-B*58:01; [19]) was ≥ 20000 nM, the Kd (HLA-A*69:01; [19]) was ≥ 20000 nM and the Kd (HLA-B*35:01) was 290 nM. For the same sequence, the Kd (HLA-A*31:01 [4]; [19]) was ≥ 20000 nM, the Kd (HLA-B*08:01) was ≥ 20000 nM and the Kd (HLA-B*40:01; [19]) was ≥ 20000 nM. The Kd (HLA-A*24:03) was 893 nM, the Kd (HLA-A*02:01 [5]; [19]) was 666 nM and the Kd (HLA-A*26:01) was ≥ 20000 nM. The Kd (HLA-A*11:01; [19]) was ≥ 20000 nM and the Kd (HLA-B*27:05; [19]) was ≥ 20000 nM.

For YVVIAILTV, the Kd (HLA-A*68:02; [18]) was 26.3 nM, the Kd (HLA-A*02:01 [7]; [18]) was 254 nM and the Kd (HLA-A*02:06; [18]) was 12.4 nM. For the same sequence, the Kd (HLA-A*02:17; [18]) was 509 nM.
